Experimental findings from the nanobody polyreactivity screen of Harvey et al. (2022) are described below.

This series is described as follows: yeast display, Sf9 membrane polyspecificity reagent, FACS + sequencing; frameworks hold sequencing errors. The procedure, abridged:
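Nanobodies came from a synthetic yeast display library in Saccharomyces cerevisiae BJ5465, induced with galactose for 36–48 hours and stained for 1 hour at 4 °C with 10% biotinylated, detergent-solubilized Sf9 membrane reagent. Cells were enriched on streptavidin microbeads and then FACS-sorted, with low and high (top ~1%) gates set on anti-HA fluorescence for expression and streptavidin fluorescence for reagent binding. Each polyreactivity label reflects the gate a clone came from. Genes were amplified by colony PCR, sequenced by MiSeq 2 × 250 and filtered by CDR length.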
Turning to “QVQLVESGGGLVQAGGSLRLSCAASGYTFSRNAMGWYRQAPGKERELVAAITGSGGSTYYADSVKGRFTISRDNAKNTVYLQMNSLKPEDTAVYYCATEVKRGYVGFDYWGQGTQVTVSS”, the “polyreactivity (PSR sort gate)” value is “low polyreactivity”.
The value for “QVQLVESGGGLVQAGGSLRLSCAASGYTFSWYAMGWYRQAPGKERELVAGIDTSGGSTYYADSVKGRFTISRDNAKNTVYLQMNSLKPEDTAVYYCAAGLLWYSWGFWYYEYGYWGQGTQVTVSS” was “low polyreactivity”.
In the case of “QVQLVESGGGLVQAGGSLRLSCAASGYTFTHNAIGWYRQAPGKERELVATIRNSGSRTYYADSVKGRFTISRDNGKNTVYLQMNSLKPEDTAVYYCAARLLYRHFGYWGQGTQVTVSS”, the “polyreactivity (PSR sort gate)” value is on record as “high polyreactivity”.
In the case of “QVQLVESGGGLVQAGGSLRLSCAASGYTFTINAMGWYRQAPGKERELVAAISWNGGRTYYADSVKGRFTISRDNAKNTDYVQMNSLQPEDTAVCYCNADTYSAGDYWGQGTQVTVSS” it was “high polyreactivity”.
The value for “QVQLVESGGGLVQAGGSLRLSCAASGYTFTIYSMGWYRQAPGKERELVAAISWNGGRTYYADSVKGRFTISRDNAKNTVYLKMNSLKPEDTAVYDCNADNFSAGDYWGQGTQVTVSS” was “high polyreactivity”.
The value for “QVQLVESGGGLVQAGGSLRLSCAASGYTFTQNAMGWYRQAPGKERELVASITSGGSTDYADSVKGRFTISRDNAKNTVYLQMNSLKPEDTAVYYCAKDYYAYSDYDYWGQGTQVTVSS” was “low polyreactivity”; that for “QVQLVESGGGLVQAGGSLRLSCAASGYTFVDNAMGRYRQAPGKERELVAAINWDGASTYADSVKGRFTISRDNAKNTVYLQMNSLKPEDTAVYYCTASGKDIFNYVYQGYDYWGQGTQVTVSS” was “low polyreactivity”; that for “QVQLVESGGGLVQAGGSLRLSCAASGYTFVGYAMGWYRQAPGKERELVASISTGDSTYYADSVKGRFTISRDNAKNTVYLQMNSLKPEDTAVYYCAADFWEYEYPYDYWGQGTQVTVSS” was “low polyreactivity”.
Consider “QVQLVESGGGLVQAGGSLRLSCAASGYTFVYYAMGWYRQAPGKERELVAAITGNSGSTYADSVKGRFTISRDNAKNTVYLQMNSLNPEDTAVYYCAADQTGQDWYYVEFDYWGQGTQVTVSS”, for which the “polyreactivity (PSR sort gate)” value is given as “low polyreactivity”.
Consider “QVQLVESGGGLVQAGGSLRLSCAASGYTFWANAMGRYRQAPGKERELVAAISWTGGSTYYADSVKGRFTISRDNAKNTVYLQMNSLKPEDTAVYYCNRARINTRVQTDDYWGQGTQVTVSS”, for which the “polyreactivity (PSR sort gate)” value was “high polyreactivity”.
In the case of “QVQLVESGGGLVQAGGSLRLSCAASGYTFWAYAMGWYRQAPGKERELVAAITYRGGSTYYADSVKGRFTISRDNAKNTVYLQMNSLKPEDTAVYYCAAEGYYTGYWDLYDYWGQGTQVTVSS” it was “high polyreactivity”; in that of “QVQLVESGGGLVQAGGSLRLSCAASGYTFWAYTMGWSRQAPGKERELVAAISFSGGSTYYADSVKGRFTISRDNAKNTVYLLMNSLKPEDTAVYYCAADYLIEMDYWGQGTQVTVSS”, “low polyreactivity”; in that of “QVQLVESGGGLVQAGGSLRLSCAASGYTFWHYAMGWYRQAPGKEREFVATISSGGSTYYADSVKGRFTISRDNAMNTVYLQMNSLKPEDTAVYYCAADVDYIGPIYDYWGQGTQVTVSS”, “low polyreactivity”.
The value for “QVQLVESGGGLVQAGGSLRLSCAASGYTFWRYAMGWYRQAPGKERELVAAISASGGSTYYADSVKGRFTISRDNAKNTVYLQMNSLKPEDTAVYYCNAVSAYSYYVNYDYWGQGTQVTVSS” was “high polyreactivity”; that for “QVQLVESGGGLVQAGGSLRLSCAASGYTFYANAMGWYRQAPGKEREFVASITWSGGSTYYADSVKGRFTISRDNAKNNVYLQMHSLKPEDTAVYYCAAESWFKYDYWGQGTQVTVSS” was “low polyreactivity”; that for “QVQLVESGGGLVQAGGSLRLSCAASGYTFYANAMGWYRQAPGKEREFVASITWSGGSTYYPDSVKGRFTISRDNAKNTVYLQMNSLKPEDTAVYYCAAESWFKYDYWGQGTQETVSS” was “low polyreactivity”.
With “QVQLVESGGGLVQAGGSLRLSCAASGYTFYLYAMGWYRQAPGKESELVAAISTNGGRTYYADSVKGRFTISRDNAKNTVYLQMNSLKPEDTAVYYCAVRSRGTAPQYYYWGQGTQVTVSS”, the “polyreactivity (PSR sort gate)” value is listed as “high polyreactivity”.
In the case of “QVQLVESGGGLVQAGGSLRLSCAASGYTFYPYAMGWYRQAPGKERELVAAISYSGGRTYYADSVKGRFTISRDNAKNTVYLQMNSLKPEDTAVYYCAADSGRYRMYYWGQGTQVTVSS” it was “high polyreactivity”; in that of “QVQLVESGGGLVQAGGSLRLSCAASGYTFYQNAMGWYRQAPGKERELVAAITFRTGSTYYADSVKGRFTISRDNAKNTVYLQMNSLKPEDTAVYYCAATRFLRYWWYGYWGQGTQVTVSS”, “low polyreactivity”.
In the case of “QVQLVESGGGLVQAGGSLRLSCAASGYTFYYYAMGWYRQAPGKEREFVAAISWRGGRTYYADSVKGRFTISRDNAKNTVYLQMNSLKPEDTAVYYCAARRDGWTFWKYDYWGQGTQVTVSS” it was “high polyreactivity”.
The value for “QVQLVESGGGLVQAGGSLRLSCAASGYTIFSYGMGWYRQAPGKERELVAAISSGDRTNYADSVKGRFTISRDNAKNTVYLQMNSLKPEDTAVYYCNADRASSSVGYSDDFGHDSWGQGTQVTVSS” was “low polyreactivity”.
Consider “QVQLVESGGGLVQAGGSLRLSCAASGYTIRKNAMGWYRQAPGKERELVAAMSRSGGSTYYADSVKGRFTISRDNAKNIVYLQMNSLKPEDTAVYYCNTRYPYYWPMYGYWGQGTQVTVSS”, for which the “polyreactivity (PSR sort gate)” value is recorded as “high polyreactivity”.
The value for “QVQLVESGGGLVQAGGSLRLSCAASGYTIRYNALGWYRQAPGKERELVAAITQRSGSTYADSVKGRFTISRDNAKNTVYLQMNSLKPEDTAVYYCAARTPGYKLYDYWGQGTQVTVSS” was “low polyreactivity”; that for “QVQLVESGGGLVQAGGSLRLSCAASGYTIYSYAMGWYRQAPGKERELVAAITESGARTYYADSVKGRFTISRDNAKNTVYLLMNSLKPEDSAVYYCAADYAWPLRVTGDYWGQGTQVTVSS” was “low polyreactivity”; that for “QVQLVESGGGLVQAGGSLRLSCAASGYTLGSYAMGWYRQAPGKERELVATITWGGGSTDYADSVKGRFTISRDNAKNTVYLQMNSLKPEDTAVYYCAAEDDSYDVEGSLYYWGQGTQVTVSS” was “low polyreactivity”.
The value for “QVQLVESGGGLVQAGGSLRLSCAASGYTLRPNGMGWYRPAPGKERELVAAISSGGSTYYADSVKGRFTISRDNAKNTVYLQMNSLKPEDTAVYYCAAEYWYDYWGQGTQVTVSS” was “low polyreactivity”.
In the case of “QVQLVESGGGLVQAGGSLRLSCAASGYTLSFNAMGWYRQAPGKARELVAGITYSGGSTYYSDSVKGRFTISRDNAKNTVYLQMTSLKPEDTAVYYCNKASGVYYGHLDYWGQGTQVTVSS”, the “polyreactivity (PSR sort gate)” value is “low polyreactivity”.
The value for “QVQLVESGGGLVQAGGSLRLSCAASGYTLTPYTMGWYRQAPGKERELVAAINRSGGSTYYADSVKGRFTISRDNAKNTVYLQMNSLKPEDTAVYYCAAYGYYNFGYYYWGQGTQVTVSS” was “high polyreactivity”; that for “QVQLVESGGGLVQAGGSLRLSCAASGYTLYPNAMGRYRQAPGKERELVAAISSGSSTYADSLKGRFTISRDNAKNTVYLQMNSLKPVDTAVYYCNADARIHYDYWGQGTQVTVSS” was “low polyreactivity”.
As to “QVQLVESGGGLVQAGGSLRLSCAASGYTMGWYRQAPGKEREYGAAINQTGGSTYADSVKGRFTISRDNAKNTVYLQMNSLKPEDTAVYYCATDPAYWGDQPPEYDYWGQGTQVTVSS”, the “polyreactivity (PSR sort gate)” value is on record as “low polyreactivity”.
In the case of “QVQLVESGGGLVQAGGSLRLSCAASGYTVLYAIGWYRQAPRKDRELVAAISSRTGTTYYADSVKGRFTISRDNAKNSVYLQMNSLKREDTAVYYCNVEYFYYFRENGDYWGQGTQVTVSS” it was “low polyreactivity”; in that of “QVQLVESGGGLVQAGGSLRLSCAASGYTVRFNAMGWYRQAPGKEREFVAAIDFGGAGTYYADSVKGRFTISRDNAKNTVYLQMNSLKPEDTAVYYCNARDGVTTEFDYWGQGTQVTVSS”, “low polyreactivity”; in that of “QVQLVESGGGLVQAGGSLRLSCAASISSINAMGWYRQAPAKEREVVAASRWSGSSTYYADSVKGRFTISRDNAKNTVYLQMNSLKPEDTAGYYCAADTTTGDRGFDYWGQGTQVTVSS”, “high polyreactivity”.
The value for “QVQLVESGGGLVQAGGSLRLSCAASKESINAMGWYRQAPGKERELVAAIGWSGSSTYYADSVKGRFTISRDNAKNTVYLQMNSLKPEDTAVYYCAADTTTGDRGFDYWGQGTQVTVSS” was “high polyreactivity”; that for “QVQLVESGGGLVQAGGSLRLSCAASLRTFAWYAMGWYRQAPGKERELVAAITNRGSGTYYADSVKGRFTISRDNAKNTVYLQMNSLKPEDTAVYYCAKDPITATTLDERVFYWGQGTQVTLSS” was “low polyreactivity”.
In the case of “QVQLVESGGGLVQAGGSLRLSCAASRITFSLYAMGWYRQAPGKERELGAAISRGGSTKYADSVKGRFTISRDNAKNTVYLQMNSLKPEDTAVYYCNASARTYGGQTWNYYWGQGTQVTVSS” it was “high polyreactivity”.
With “QVQLVESGGGLVQAGGSLRLSCAASRITFYSYAMGWYRQAPGKERELVAAITFRGTSTYYADSVKGRFTISRDNAKNTVYLQMNSQKPEDTAVYYCAAYSGQARGYDYWGQGTQVTVSS”, the “polyreactivity (PSR sort gate)” value was “high polyreactivity”.
In the case of “QVQLVESGGGLVQAGGSLRLSCAASRPIFYANAKGGYRQAPGKEREFVATIRRGTSTNYADSVKGRFTISRDNAKNTVYLQMNSLKPEDTAVYYCAVVSNGRRERYYYWGQGTQVTVSS” it was “low polyreactivity”; in that of “QVQLVESGGGLVQAGGSLRLSCAASRRIFGFYAMGWYRQAPGKERELVADINWSATSTYYADSVKGRFTISRDTAKNTVYLQMNSLKPEDTAVYYCAADVSYRYYWGQGTQVTVSS”, “low polyreactivity”.
The value for “QVQLVESGGGLVQAGGSLRLSCAASRRIFSDNAMGWNRKAPGKERELVAAITFRDGSTYADSVKGRFTISRDNAKNTVYLPMNSLKPEDTAVYYCNRRSQVHSHSKHDYWGQGTQVTVSS” was “low polyreactivity”; that for “QVQLVESGGGLVQAGGSLRLSCAASRRIFYWYAMGWYRQAPGKEREWVAAITWSGGSTYYADSVKGRFTISLDNAKNTVYLQMNSLKREDTAVYFCNAEVYWDVYPGLYYYDIYDYWGQGNQVTVSS” was “low polyreactivity”.
